Measurements from FireProtDB (doi:10.1021/bi00492a006).

Conditions: Bacillus amyloliquefaciens; pH 6.3; 25 °C; Urea; Fluorescence; MES-NaOH 50 mM; reversible: yes; whole UniProt chain shown

B1: Ribonuclease wild type, P00648 (protein)
chain: MMKMEGIALKKRLSWISVCLLVLVSAAGMLFSTAAKTETSSHKAHTEAQVINTFDGVADYLQTYHKLPDNYITKSEAQALGWVASKGNLADVAPGKSIGGDIFSNREGKLPGKSGRTWREADINYTSGFRNSDRILYSSDWLIYKTTDHYQTFTKIR
  denaturant m value: 2.21 kcal/mol/M
  denaturant midpoint (higher = more stable): 4.53 M
  unfolding free energy: 10 kcal/mol
